Patent US7022815 (GENERAL HOSPITAL, dated 2006)
Values joined by “and” are separate entries in the source; they are usually repeats but may differ in a detail not shown here. Equal entries are not always repeated. Non-standard residues stand in square brackets, D forms with d. No end group written: not given here. Nle = CCCC[C@H](N)C(=O)O

T1: human PTH-1 receptor (human, UniProt Q03431 27-593)
T1 sequence (looked up): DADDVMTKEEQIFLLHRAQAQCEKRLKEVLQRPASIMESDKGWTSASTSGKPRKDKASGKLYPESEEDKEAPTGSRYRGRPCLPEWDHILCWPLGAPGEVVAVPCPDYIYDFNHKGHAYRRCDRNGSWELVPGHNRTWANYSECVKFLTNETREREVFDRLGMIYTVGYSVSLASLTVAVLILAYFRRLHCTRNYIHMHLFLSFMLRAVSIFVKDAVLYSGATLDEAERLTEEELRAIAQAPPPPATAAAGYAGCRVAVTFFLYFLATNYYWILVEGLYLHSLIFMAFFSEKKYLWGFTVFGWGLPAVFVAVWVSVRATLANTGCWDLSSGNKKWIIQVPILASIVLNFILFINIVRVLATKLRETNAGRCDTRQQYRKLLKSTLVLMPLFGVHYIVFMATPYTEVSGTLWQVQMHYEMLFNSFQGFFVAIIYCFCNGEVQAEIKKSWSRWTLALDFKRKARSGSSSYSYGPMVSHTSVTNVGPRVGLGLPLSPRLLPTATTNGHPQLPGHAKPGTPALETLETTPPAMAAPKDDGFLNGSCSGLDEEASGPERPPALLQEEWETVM

T2: rat PTH-1 receptor (rat, UniProt P25961 27-591)
T2 sequence (looked up): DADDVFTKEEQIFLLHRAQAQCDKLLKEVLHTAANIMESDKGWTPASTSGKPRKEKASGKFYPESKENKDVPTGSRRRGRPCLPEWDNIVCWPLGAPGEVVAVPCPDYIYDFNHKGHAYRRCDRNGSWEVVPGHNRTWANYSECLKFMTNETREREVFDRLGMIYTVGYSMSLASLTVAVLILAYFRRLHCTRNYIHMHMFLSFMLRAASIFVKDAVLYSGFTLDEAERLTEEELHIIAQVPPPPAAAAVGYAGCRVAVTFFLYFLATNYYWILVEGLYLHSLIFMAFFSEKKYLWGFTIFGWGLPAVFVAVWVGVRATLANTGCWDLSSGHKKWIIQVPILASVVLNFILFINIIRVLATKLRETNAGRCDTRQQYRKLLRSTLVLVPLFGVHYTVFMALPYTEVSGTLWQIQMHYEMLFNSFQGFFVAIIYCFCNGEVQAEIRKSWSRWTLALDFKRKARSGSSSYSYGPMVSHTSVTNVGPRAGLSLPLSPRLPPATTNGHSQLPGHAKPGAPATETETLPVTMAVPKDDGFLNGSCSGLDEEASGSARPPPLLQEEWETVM


Biological target: T1, human PTH-1 receptor
Test: cell-based or functional assay

| Binder | cAMP potency against controls, HKRK-B7 cells [fold] | cAMP potency against native PTH(1-14) [fold] |
| --- | --- | --- |
| AVAEIQLMHARAKHLNSMERVEWLRKKLQDVHNY-NH2 (also called peptide #7; #7) [[A1, A3, A10, R11, A12, Y34]hPTH(1-34)] | ~2 |  |
| AVAEIQLMHARAKW-NH2 [[A3, A10, R11, A12, W14]rPTH(1-14)] |  | 220 |

Biological target: T1, human PTH-1 receptor
Test: cell-based or functional assay
Remark: another data set of the same source

| Binder | cAMP EC50, HKRK-B7 cells | cAMP Emax, HKRK-B7 cells [picomole/well] |
| --- | --- | --- |
| AVAEIQLMHAR-NH2 [[A3, A10, R11]rPTH(1-11)] | -4.8 Log M and 17.1 µM | 248 |
| AVAEIQLMHQRAKH-NH2 [[A3, Q10, R11, A12]rPTH(1-14)] | -6.1 Log M and 0.8 µM | 235 |
| SVSEIQLMHNLGKHLNSMERVEWLRKKLQDVHNY-NH2 [[Tyr^34]human (h)PTH(1-34)NH2] | -8.4 Log M | 270 |
| AVAEIQLMHARAKH-NH2 [[A3, A10, R11, A12]rPTH(1-14)] | -6.1 Log M and 0.83 µM | 264 |
| AVSEIQLMHNLGKH-NH2 [native rPTH(1-14)] | -3.9 Log M and 133 µM | 299 |
| AVAEIQLMHARA-NH2 [[A3, A10, R11, A12]rPTH(1-12)] | -5 Log M and 10.2 µM | 238 |
| AVAEIQLMHARAKHLNSMERVEWLRKKLQDVHNY-NH2 (also called peptide #7; #7) [[A1, A3, A10, R11, A12, Y34]hPTH(1-34)] | -8.8 Log M and 0.0016 µM | 244 |
| AVSEIQL[Nle]HNLGKHLASVER[Nle]QWLRKKLQDVHNY-NH2 [[Nle^8,21,Tyr^34]-rPTH(1-34)NH2] | -8.6 Log M and 0.0033 µM | 293 |
| AVAEIQLMHARAKW-NH2 [[A3, A10, R11, A12, W14]rPTH(1-14)] | -6.3 Log M and 0.6 µM | 262 |
| AVAEIQLMHARAK-NH2 [[A3, A10, R11, A12]rPTH(1-13)] | -5.6 Log M and 2.4 µM | 239 |

Biological target: human PTH-2 receptor (human, UniProt P49190 25-550)
Test: cell-based or functional assay

Sequence of human PTH-2 receptor (P49190 25-550): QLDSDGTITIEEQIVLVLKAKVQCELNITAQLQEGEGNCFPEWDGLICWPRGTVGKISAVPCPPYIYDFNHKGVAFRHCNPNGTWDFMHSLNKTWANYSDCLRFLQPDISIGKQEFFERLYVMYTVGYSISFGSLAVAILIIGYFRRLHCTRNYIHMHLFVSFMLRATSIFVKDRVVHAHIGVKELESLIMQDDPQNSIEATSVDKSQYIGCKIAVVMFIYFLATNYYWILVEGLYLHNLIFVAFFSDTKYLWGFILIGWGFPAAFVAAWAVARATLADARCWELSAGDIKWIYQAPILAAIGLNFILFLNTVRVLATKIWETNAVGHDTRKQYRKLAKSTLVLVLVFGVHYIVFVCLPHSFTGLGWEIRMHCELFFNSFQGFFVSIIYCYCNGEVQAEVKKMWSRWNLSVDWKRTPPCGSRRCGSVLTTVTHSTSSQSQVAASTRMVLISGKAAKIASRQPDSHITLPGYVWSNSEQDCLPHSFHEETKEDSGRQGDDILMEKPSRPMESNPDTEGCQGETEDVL

| Binder | cAMP EC50, LLC-P2R-22 cells | cAMP Emax, LLC-P2R-22 cells [picomole/well] |
| --- | --- | --- |
| AVAEIQLMHARAKH-NH2 [[A3, A10, R11, A12]rPTH(1-14)] | -3.9 Log M and 126 µM | 292 |
| AVAEIQLMHARA-NH2 [[A3, A10, R11, A12]rPTH(1-12)] | -3.5 Log M and 342 µM | 501 |
| AVAEIQLMHARAKHLNSMERVEWLRKKLQDVHNY-NH2 (also called peptide #7; #7) [[A1, A3, A10, R11, A12, Y34]hPTH(1-34)] | -7.7 Log M and 0.0192 µM | 677 |
| AVSEIQL[Nle]HNLGKHLASVER[Nle]QWLRKKLQDVHNY-NH2 [[Nle^8,21,Tyr^34]-rPTH(1-34)NH2] | -8.4 Log M and 0.0044 µM | 744 |
| AVAEIQLMHARAK-NH2 [[A3, A10, R11, A12]rPTH(1-13)] | -4 Log M and 106 µM | 501 |

Biological target: T1, human PTH-1 receptor
Test: cell-based or functional assay
Remark: another data set of the same source

| Binder | cAMP EC50, COS-7 cells with WT hPTH-1 receptor | cAMP Emax, COS-7 cells with WT hPTH-1 receptor [picomole/well] |
| --- | --- | --- |
| AVAEIQLMHAR-NH2 [[A3, A10, R11]rPTH(1-11)] | -4.6 Log M and 29.1 µM | 238 |
| SVSEIQLMHNLGKHLNSMERVEWLRKKLQDVHNY-NH2 [[Tyr^34]human (h)PTH(1-34)NH2] | -9.3 Log M | 226 |
| AVAEIQLMHARAKH-NH2 [[A3, A10, R11, A12]rPTH(1-14)] | -6 Log M and 4.66 µM | 243 |
| AVSEIQLMHNLGKH-NH2 [native rPTH(1-14)] | -3.8 Log M and 152 µM | 221 |
| AVAEIQLMHARAKHLNSMERVEWLRKKLQDVHNY-NH2 (also called peptide #7; #7) [[A1, A3, A10, R11, A12, Y34]hPTH(1-34)] | -3.5 Log M and 313 µM | 222 |
| AVSEIQL[Nle]HNLGKHLASVER[Nle]QWLRKKLQDVHNY-NH2 [[Nle^8,21,Tyr^34]-rPTH(1-34)NH2] | -9.2 Log M and 0.0007 µM | 226 |

Biological target: T1, human PTH-1 receptor
Test: cell-based or functional assay
Remark: another data set of the same source

| Binder | cAMP EC50, SAOS-2 cells | cAMP Emax, SAOS-2 cells [picomole/well] |
| --- | --- | --- |
| AVAEIQLMHAR-NH2 [[A3, A10, R11]rPTH(1-11)] | 94.7 µM and -4.12 Log M | 235 |
| SVSEIQLMHNLGKHLNSMERVEWLRKKLQDVHNY-NH2 [[Tyr^34]human (h)PTH(1-34)NH2] |  | 307 |
| AVAEIQLMHARAKH-NH2 [[A3, A10, R11, A12]rPTH(1-14)] | 12.7 µM and -4.9 Log M | 331 |
| AVAEIQLMHARAKHLNSMERVEWLRKKLQDVHNY-NH2 (also called peptide #7; #7) [[A1, A3, A10, R11, A12, Y34]hPTH(1-34)] | 0.00011 µM and -9.95 Log M | 272 |
| AVSEIQL[Nle]HNLGKHLASVER[Nle]QWLRKKLQDVHNY-NH2 [[Nle^8,21,Tyr^34]-rPTH(1-34)NH2] | -9.75 Log M and 0.00018 µM | 272 |

Biological target: T2, rat PTH-1 receptor
Test: cell-based or functional assay

| Binder | cAMP EC50, ROS 17/2.8 cells | cAMP Emax, ROS 17/2.8 cells [picomole/well] |
| --- | --- | --- |
| AVAEIQLMHAR-NH2 [[A3, A10, R11]rPTH(1-11)] | 133 µM and -3.9 Log M | 377 |
| SVSEIQLMHNLGKHLNSMERVEWLRKKLQDVHNY-NH2 [[Tyr^34]human (h)PTH(1-34)NH2] | -9.6 Log M and 0.0003 µM | 340 |
| AVAEIQLMHARAKH-NH2 [[A3, A10, R11, A12]rPTH(1-14)] | -5.2 Log M and 7.3 µM | 395 |
| AVSEIQLMHNLGKH-NH2 [native rPTH(1-14)] | -3.4 Log M and 449 µM | 376 |
| AVAEIQLMHARAKHLNSMERVEWLRKKLQDVHNY-NH2 (also called peptide #7; #7) [[A1, A3, A10, R11, A12, Y34]hPTH(1-34)] | -9.6 Log M and 0.0002 µM | 395 |
| AVSEIQL[Nle]HNLGKHLASVER[Nle]QWLRKKLQDVHNY-NH2 [[Nle^8,21,Tyr^34]-rPTH(1-34)NH2] | -9.5 Log M and 0.0003 µM | 364 |
| AVAEIQLMHARAKW-NH2 [[A3, A10, R11, A12, W14]rPTH(1-14)] | 3.4 µM | 382 |

Biological target: truncated human PTH-1 receptor hDelNt (human), Q03431
Test: cell-based or functional assay

| Binder | cAMP Emax, COS-7 cells with hDeINt (picomole/well) | cAMP potency against native PTH(1-14) [fold] |
| --- | --- | --- |
| AVAEIQLMHAR-NH2 [[A3, A10, R11]rPTH(1-11)] | 243 |  |
| SVSEIQLMHNLGKHLNSMERVEWLRKKLQDVHNY-NH2 [[Tyr^34]human (h)PTH(1-34)NH2] | 238 |  |
| AVAEIQLMHARAKH-NH2 [[A3, A10, R11, A12]rPTH(1-14)] | 250 | 100 |
| AVSEIQLMHNLGKH-NH2 [native rPTH(1-14)] | 222 |  |
| AVAEIQLMHARAKHLNSMERVEWLRKKLQDVHNY-NH2 (also called peptide #7; #7) [[A1, A3, A10, R11, A12, Y34]hPTH(1-34)] | 251 |  |
| AVSEIQL[Nle]HNLGKHLASVER[Nle]QWLRKKLQDVHNY-NH2 [[Nle^8,21,Tyr^34]-rPTH(1-34)NH2] | 243 |  |

Biological target: T1, human PTH-1 receptor
Test: competition binding on HKRK-B7 cells, 125I-rPTH(1-34) tracer displaced by varying doses of unlabeled peptide
Method: Binding reactions were performed with stably transfected HKRK-B7 cells in 24-well plates. […] Incubations (final volume=300 µL) were at 15° C. for 4 h. Cells were then placed on ice, the binding medium was removed, and the monolayer was rinsed three times with 0.5 mL of cold binding buffer. The cells were subsequently lysed with 0.5 mL 5N NaOH and counted for radioactivity. The non-specific binding for each experiment was determined by competition with a 1 µM dose of unlabeled rPTH(1–34). The maximum specific binding (B_0) was the total radioactivity bound in the absence of unlabeled PTH ligand, corrected for nonspecific binding. Binding $IC50$ values were determined using nonlinear regression (see below).
To determine if these substitutions could enhance the activity of PTH(1–34), the substitutions of Ser3→Ala, Asn10→Ala, Leu11→Arg and Gly12→Ala were introduced into the analog [Ala1,Tyr34]hPTH(1–34) to yield peptide #7.

| Binder | fold improvement in binding affinity, as compared to rPTH(1-34) [fold] |
| --- | --- |
| AVAEIQLMHARAKHLNSMERVEWLRKKLQDVHNY-NH2 (also called peptide #7; #7) [[A1, A3, A10, R11, A12, Y34]hPTH(1-34)] | ~2 |
